Assay results published in US11680267B2, “Co-regulatory sequences based on tetracycline and Cumate” (Shenzhen Eureka Biotechnology Co., Ltd., priority 2020, dated 2023).

Legend:
Assay type in all cases: cell-based
293T-rtTA3G-CymR cells [1] = test: Luciferase fluorescence intensity assay, transient transfection, both DOX and Cumate vs DOX alone (Example 2); details: for induced expression level: transient transfection, 24 hours after transfection
Excerpt: The experiment described in the present Example is to study and verify the effect of the position and copy number of the CuO operator in the Tet-On and Cumate complex response element on the induced expression level and non-induced leaky expression level of the complex response element, and to optimize and confirm the optimal position and copy number of the CuO operator. In the present Example, based on the 7×TetO sequence in the TRE3G response element and the minimal promoter sequence #1 (SEQ ID NO: 25), the response elements TRE3GCuO14 (10-317 bp in SEQ ID NO: 8), TRE3GCuO30 (SEQ ID NO: 28), TRE3GCuO50 (SEQ ID NO: 23) and TRE3GCuO100 (10-403 bp in SEQ ID NO: 10) were designed by linking a CuO operator sequence at 10 bp to 100 bp downstream of the TATA box (at 14 bp, 30 bp, 50 bp and 100 bp downstream of the TATA box, respectively), and a Luciferase reporter gene sequence was linked downstream of the 3′ end of the above response elements, to construct plasmids 18BF251, 18BF252, 18BF235 and 18BF253. Further, in order to study the effect of multiple copies of CuO operators, 2, 4 and 6 copies of CuO operator sequences were respectively inserted at 50 bp downstream of the TATA box, to design the response elements TRE3GCuO2x (10-411 bp in SEQ ID NO: 11), TRE3GCuO4x (10-527 bp in SEQ ID NO: 12) and TRE3GCuO6x (10-643 bp in SEQ ID NO: 13), and then a Luciferase reporter gene sequence was linked downstream of 3′ end of the above response elements to construct plasmids 18BF254, 18BF255 and 18BF256. In 293T-rtTA3G-CymR cells stably expressing rtTA3G and CymR genes, the above plasmids were transiently transfected, and the optimal position and number of CuO operator were validated by measuring the luciferase […] value of samples added with both DOX and Cumate inducers and that of the control added with the DOX inducer only. The specific experimental methods were as follows:
(§1) 293T cells were seeded at 1.5E+06 cells per 60 mm culture dish, and cultured in DMEM (Sigam, D6429) complete medium supplemented with 10% FBS (ExCell, 11H116) at 37° C. and 5% CO 2. After 24 hours of culture, transfection was carried out according to the PEI method. During transfection, 500 μL of transfection reagent which contained 5.5 ug of total plasmid was added to each 60 mm culture dish, and the mass ratio of total plasmid to PEI MAX (Polysciences, 24765-1) was 1:4. The transfection was carried out according to the PEI method, wherein the amount of total plasmid was 5.5 μg. The transfection was performed with plasmids 19BF074:18BF019 at a molar ratio of 10:1 to obtain 293T-rtTAadv-CymR cells; and the transfection was performed with plasmids 19BF075:18BF019 at a molar ratio of 10:1 to obtain 293T-rtTA3G-CymR cells. The plasmid and PEI MAX were mixed uniformly, and then put into a culture dish after standing for 15 minutes. 3 hours after transfection, the medium was changed to a complete DMEM medium, and the transfection operation was completed. After 24 hours of transfection, the cells were digested with trypsin and all seeded in a 100 mm culture dish (Corning, 430167), and 200 μg/ml of hygromycin (Sangon Biotech A600230-0001) drug screening was performed for at least three passages. After the growth of cells under the pressure of drug screening was consistent with that of the original 293T cells, the following experiments were performed.
The 293T-rtTA3G-CymR cells were seeded in a 96-well plate (Corning 3916) at 2.5E+04 cells per well, and the medium was 100 microliters of DMEM complete medium. […]

293T-rtTAadv-CymR cells = test: Luciferase assay, transient transfection, DOX and Cumate vs no inducer (Example 3), rtTAadv cells
Description: as §1
(§2) In Tet-On inducible expression system, the induced transcription activity and the leaky transcription activity were comprehensively affected by the TetO operator linking sequence of the TRE response element and the minimal promoter sequence, as well as different mutants of the transactivator rtTA. In addition, the transport and stability of messenger ribonucleic acid may be enhanced by linking a spliceable intron sequence downstream of the 3′ end of the response element and upstream of the 5′ end of the regulated nucleic acid fragment of interest, but the induced transcription activity and leaky transcription activity of response element of the inducible expression system may also be affected. Based on this, the optimal design scheme of complex response element was determined in this Example based on the induced expression level and the ratio of induced/leaky expression level of Luciferase gene under the combination of the following conditions: (1) Tet-On and Cumate complex response elements TREadvCuO and TRE3GCuO designed based on the TREadv and TRE3G response element sequences; (2) whether an intron was linked; (3) being regulated by the transactivator rtTAadv or rtTA3G. A total of 8 design schemes were compared in this Example: TREadv (18BF232), TREadvCuO (18BF233), TRE3G (18BF234), TRE3GCuO (18BF235), TREadv-BGI (18BF240, wherein the response element was TREadv, and a human β-globulin intron was linked between the 3′ end of the response element and the 5′ end of the Luciferase gene), TREadvCuO-BGI (18BF241, wherein the response element was TREadvCuO, and a human β-globulin intron was linked between the 3′ end of the response element and the 5′ end of the Luciferase gene), TRE3G-BGI (18BF236, wherein the response element was TRE3G, and a human β-globulin intron was linked between the 3′ end of the response element and the 5′ end of the Luciferase gene) and TRE3GCuO-BGI (18BF237, wherein the response element was TRE3GCuO, and a human β-globulin intron was linked between the 3′ end of the response element and the 5′ end of the Luciferase gene). The promoter CMV-BGI (18BF229, wherein the promoter was CMV, and a human β-globulin intron was linked between the 3′ end of the CMV promoter and the 5′ end of the Luciferase gene) was used as a positive control. […]

293T-rtTA3G-CymR cells [2] = test: Luciferase fluorescence intensity assay, transient transfection, both DOX and Cumate vs DOX alone (Example 2); details: for induced expression level as % of the induced expression level for TREadv response element: 1 ug/ml DOX and 200 ug/ml Cumate; for ratio of induced/leaky expression level based on Cumate inducible expression system, relative to that for the TREadv response element: DOX and Cumate vs DOX only
293T-rtTA3G-CymR cells [3] = test: Luciferase assay, transient transfection, DOX and Cumate vs no inducer (Example 3), rtTA3G cells; details: 293T-rtTA3G-CymR cells
Description: as §1, §2

[4] = 1 ug/ml DOX and 200 ug/ml Cumate

| Molecule | induced expression level as % of the induced expression level of TRE3G response element (293T-rtTA3G-CymR cells [1]; [4]) [%] | ratio of induced/leaky expression level based on Cumate inducible expression system, relative to that of TRE3G response element (293T-rtTA3G-CymR cells [1]; DOX and Cumate vs DOX only) [times] | induced expression level (293T-rtTA3G-CymR cells [1]; [4]) | induced expression level as % of that of the corresponding TRE3G or TREadv single regulatory response element (293T-rtTAadv-CymR cells; DOX and Cumate) [%] | induced/leaky expression ratio (293T-rtTAadv-CymR cells; DOX and Cumate vs no inducer) [times] | induced expression level as % of the induced expression level for TREadv response element (293T-rtTA3G-CymR cells [2]) [%] | ratio of induced/leaky expression level based on Cumate inducible expression system, relative to that for the TREadv response element (293T-rtTA3G-CymR cells [2]) [times] | induced expression level as % of that of the single regulatory response element (293T-rtTA3G-CymR cells [3]; DOX and Cumate) [%] | induced/leaky expression ratio (293T-rtTA3G-CymR cells [3]; DOX and Cumate vs no inducer) [times] |
| --- | --- | --- | --- | --- | --- | --- | --- | --- | --- |
| TRE3GCuO30: Tet-On (TRE3G) and Cumate complex response element, CuO 30 bp behind the TATA box (SEQ ID NO: 28) (nucleic acid, TRE3GCuO30 response element sequence) DNA: TCCCTATCAGTGATAGAGAACGTATGAAGAGTTTACTCCCTATCAGTGATAGAGAACGTATGCAGACTTTACTCCCTATCAGTGATAGAGAACGTATAAGGAGTTTACTCCCTATCAGTGATAGAGAACGTATGACCAGTTTACTCCCTATCAGTGATAGAGAACGTATCTACAGTTTACTCCCTATCAGTGATAGAGAACGTATATCCAGTTTACTCCCTATCAGTGATAGAGAACGTATTAGGCGTGTACGGTGGGCGCCTATAAAAGCAGAGCTCGTTTAGTGAACCGTCAGATACAAACAGACCAGATTGTCTGTTTGTT | 44.5 | 4.21 | 3.06E+06 RLU | – | – | – | – | – | – |
| TREadvCuO: Tet-On (7xTetO of TREadv) and Cumate complex response element, CuO 52 bp behind the TATA box (SEQ ID NO: 30) (nucleic acid, TREadvCuO52 response element sequence) DNA: TCCCTATCAGTGATAGAGAACGTATGTCGAGTTTACTCCCTATCAGTGATAGAGAACGATGTCGAGTTTACTCCCTATCAGTGATAGAGAACGTATGTCGAGTTTACTCCCTATCAGTGATAGAGAACGTATGTCGAGTTTACTCCCTATCAGTGATAGAGAACGTATGTCGAGTTTATCCCTATCAGTGATAGAGAACGTATGTCGAGTTTACTCCCTATCAGTGATAGAGAACGTATGTCGAGGTAGGCGTGTACGGTGGGAGGCCTATATAAGCAACCGGTGTTTAGTGAACCGTCAGATCGCCTGGAGACGCCATCATAATACAAACAGACCAGATTGTCTGTTTGTT | – | – | 4.88E+06 RLU | 36.3 | 1345 | 53.4 | 3.23 | 40.3 | 1915 |
| TREadvCuO32: Tet-On (TREadv) and Cumate complex response element, CuO 32 bp behind the TATA box (SEQ ID NO: 29) (nucleic acid, TREadvCuO32 response element sequence) DNA: TCCCTATCAGTGATAGAGAACGTATGTCGAGTTTACTCCCTATCAGTGATAGAGAACGATGTCGAGTTTACTCCCTATCAGTGATAGAGAACGTATGTCGAGTTTACTCCCTATCAGTGATAGAGAACGTATGTCGAGTTTACTCCCTATCAGTGATAGAGAACGTATGTCGAGTTTATCCCTATCAGTGATAGAGAACGTATGTCGAGTTTACTCCCTATCAGTGATAGAGAACGTATGTCGAGGTAGGCGTGTACGGTGGGAGGCCTATATAAGCAACCGGTGTTTAGTGAACCGTCAGATCTACAAACAGACCAGATTGTCTGTTTGTT | – | – | 3.26+06 RLU | – | – | 37.8 | 4.97 | – | – |
